Measured values taken from patent US20190309059A1 (SHANGHAI PHARMAEXPLORER, published 2019).
Several values for one entry are separate records, joined by “and”; a condition that tells them apart may be missing. Identical values can stand only once.

Key:
[1] = target: his-labeled human IL-13 (immunogen A) (human) (UniProt P35225); test: FACS blocking, biotin-IL-13 on IL-13Ra1/IL-4Ra HEK293 cells; antibody at 6.67 nM
[2] = target: his-labeled human IL-13 (immunogen A) (human) (UniProt P35225); test: FACS blocking, biotin-IL-13 on IL-13Ra1/IL-4Ra HEK293 cells; antibody at 0.05 nM
[3] = target: his-labeled human IL-13R130Q variant (human) (UniProt P35225); test: ELISA, IL-13R130Q variant; antibody at 0.021 nM
his-labeled human IL-13R130Q variant (human), sequence (P35225 other isoform, or with tags, fused parts or gaps mutant): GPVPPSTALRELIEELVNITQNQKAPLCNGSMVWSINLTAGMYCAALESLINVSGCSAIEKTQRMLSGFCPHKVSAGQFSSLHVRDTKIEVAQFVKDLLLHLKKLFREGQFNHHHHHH

[4] = target: his-labeled human IL-13 (immunogen A) (human) (UniProt P35225); test: FACS blocking, biotin-IL-13 on IL-13Ra2 HEK293 cells; antibody at 33.33 nM
[5] = target: his-labeled human IL-13 (immunogen A) (human) (UniProt P35225); test: FACS blocking, biotin-IL-13 on IL-13Ra2 HEK293 cells; antibody at 0.002 nM
[6] = target: his-labeled human IL-13 (immunogen A) (human) (UniProt P35225); test: FACS blocking, biotin-IL-13 on IL-13Ra2 HEK293 cells; antibody at 0.01 nM
[7] = target: his-labeled human IL-13R130Q variant (human) (UniProt P35225); test: ELISA, IL-13R130Q variant; antibody at 0.53 nM
[8] = target: his-labeled human IL-13 (immunogen A) (human) (UniProt P35225); test: FACS blocking, biotin-IL-13 on IL-13Ra2 HEK293 cells; antibody at 166.67 nM
[9] = target: cynomolgus IL-13 (purchased from sino biological) (cynomolgus) (UniProt Q0PW92); test: ELISA, cynomolgus IL-13; antibody at 0.53 nM
cynomolgus IL-13 (purchased from sino biological) (cynomolgus), sequence (Q0PW92 entry or part of it): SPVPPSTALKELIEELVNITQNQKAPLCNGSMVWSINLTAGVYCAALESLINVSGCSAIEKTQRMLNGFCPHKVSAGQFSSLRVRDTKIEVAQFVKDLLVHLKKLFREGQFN

[10] = target: his-labeled human IL-13 (immunogen A) (human) (UniProt P35225); test: cell-based or functional assay
[11] = target: his-labeled human IL-13 (immunogen A) (human) (UniProt P35225); test: ELISA, biotin-immunogen A; antibody at 0.53 nM
[12] = target: cynomolgus IL-13 (purchased from sino biological) (cynomolgus) (UniProt Q0PW92); test: ELISA, cynomolgus IL-13; antibody at 2.67 nM
[13] = target: his-labeled human IL-13 (immunogen A) (human) (UniProt P35225); test: FACS blocking, biotin-IL-13 on IL-13Ra2 HEK293 cells; antibody at 1.33 nM
[14] = target: his-labeled human IL-13 (immunogen A) (human) (UniProt P35225); test: FACS blocking, biotin-IL-13 on IL-13Ra1/IL-4Ra HEK293 cells; antibody at 33.33 nM
[15] = target: his-labeled human IL-13 (immunogen A) (human) (UniProt P35225); test: FACS blocking, biotin-IL-13 on IL-13Ra1/IL-4Ra HEK293 cells; antibody at 0.01 nM
[16] = target: his-labeled human IL-13 (immunogen A) (human) (UniProt P35225); test: ELISA, biotin-immunogen A; antibody at 0.11 nM
[17] = target: his-labeled human IL-13R130Q variant (human) (UniProt P35225); test: ELISA, IL-13R130Q variant; antibody at 2.67 nM
[18] = target: cynomolgus IL-13 (purchased from sino biological) (cynomolgus) (UniProt Q0PW92); test: ELISA, cynomolgus IL-13; antibody at 0.021 nM
[19] = target: his-labeled human IL-13 (immunogen A) (human) (UniProt P35225); test: FACS blocking, biotin-IL-13 on IL-13Ra1/IL-4Ra HEK293 cells; antibody at 166.67 nM
[20] = target: his-labeled human IL-13 (immunogen A) (human) (UniProt P35225); test: FACS blocking, biotin-IL-13 on IL-13Ra2 HEK293 cells; antibody at 6.67 nM
[21] = target: his-labeled human IL-13 (immunogen A) (human) (UniProt P35225); test: FACS blocking, biotin-IL-13 on IL-13Ra1/IL-4Ra HEK293 cells; antibody at 0.27 nM
[22] = target: cynomolgus IL-13 (purchased from sino biological) (cynomolgus) (UniProt Q0PW92); test: ELISA, cynomolgus IL-13; antibody at 0.004 nM
[23] = target: his-labeled human IL-13 (immunogen A) (human) (UniProt P35225); test: FACS blocking, biotin-IL-13 on IL-13Ra2 HEK293 cells; antibody at 0.05 nM
[24] = target: his-labeled human IL-13 (immunogen A) (human) (UniProt P35225); test: FACS blocking, biotin-IL-13 on IL-13Ra1/IL-4Ra HEK293 cells; antibody at 1.33 nM
[25] = target: his-labeled human IL-13 (immunogen A) (human) (UniProt P35225); test: FACS blocking, biotin-IL-13 on IL-13Ra1/IL-4Ra HEK293 cells; antibody at 0.002 nM
[26] = target: his-labeled human IL-13R130Q variant (human) (UniProt P35225); test: ELISA, IL-13R130Q variant; antibody at 0.11 nM
[27] = target: his-labeled human IL-13 (immunogen A) (human) (UniProt P35225); test: FACS blocking, biotin-IL-13 on IL-13Ra2 HEK293 cells; antibody at 0.27 nM

mean fluorescence intensity [1]: 27.7
mean fluorescence intensity [2]: 68.9
OD450 nm [3]: 0.06
mean fluorescence intensity [4]: 82.7
mean fluorescence intensity [5]: 79.3
mean fluorescence intensity [6]: 83.2
OD450 nm [7]: 0.06
mean fluorescence intensity [8]: 77
OD450 nm [9]: 0.09
Periostin (pg/mL), MRCS cells + IL-13 5 ng/mL; control antibody at 0.0002 nM [10]: 6350 pg/mL
Periostin (pg/mL), MRCS cells + IL-13 5 ng/mL; control antibody at 0.001 nM [10]: 4760 pg/mL
Periostin (pg/mL), MRCS cells + IL-13 5 ng/mL; control antibody at 0.004 nM [10]: 4290 pg/mL
Periostin (pg/mL), MRCS cells + IL-13 5 ng/mL; control antibody at 0.021 nM [10]: 4010 pg/mL
Periostin (pg/mL), MRCS cells + IL-13 5 ng/mL; control antibody at 0.11 nM [10]: 3830 pg/mL
Periostin (pg/mL), MRCS cells + IL-13 5 ng/mL; control antibody at 0.53 nM [10]: 4920 pg/mL
Periostin (pg/mL), MRCS cells + IL-13 5 ng/mL; control antibody at 2.67 nM [10]: 5740 pg/mL
Periostin (pg/mL), MRCS cells + IL-13 5 ng/mL; control antibody at 13.3 nM [10]: 6240 pg/mL
TARC (pg/mL), A549 cells + IL-13 5 ng/mL + TNFα; control antibody at 0.001 nM [10]: 2010 pg/mL
TARC (pg/mL), A549 cells + IL-13 5 ng/mL + TNFα; control antibody at 0.004 nM [10]: 1720 pg/mL
TARC (pg/mL), A549 cells + IL-13 5 ng/mL + TNFα; control antibody at 0.021 nM [10]: 1740 pg/mL
TARC (pg/mL), A549 cells + IL-13 5 ng/mL + TNFα; control antibody at 0.11 nM [10]: 1650 pg/mL
TARC (pg/mL), A549 cells + IL-13 5 ng/mL + TNFα; control antibody at 0.5 nM [10]: 1640 pg/mL
TARC (pg/mL), A549 cells + IL-13 5 ng/mL + TNFα; control antibody at 2.7 nM [10]: 1720 pg/mL
TARC (pg/mL), A549 cells + IL-13 5 ng/mL + TNFα; control antibody at 13.3 nM [10]: 1800 pg/mL
TARC (pg/mL), A549 cells + IL-13 5 ng/mL + TNFα; control antibody at 66.7 nM [10]: 1870 pg/mL
TARC (pg/mL), A549 cells + IL-13 + TNFα; control antibody at 0.001 nM [10]: 3120 pg/mL
TARC (pg/mL), A549 cells + IL-13 + TNFα; control antibody at 0.001 nM (part 2, with hP4 4H12) [10]: 2920 pg/mL
TARC (pg/mL), A549 cells + IL-13 + TNFα; control antibody at 0.004 nM [10]: 2980 pg/mL
TARC (pg/mL), A549 cells + IL-13 + TNFα; control antibody at 0.004 nM (part 2, with hP4 4H12) [10]: 2560 pg/mL
TARC (pg/mL), A549 cells + IL-13 + TNFα; control antibody at 0.021 nM [10]: 3000 pg/mL
TARC (pg/mL), A549 cells + IL-13 + TNFα; control antibody at 0.021 nM (part 2, with hP4 4H12) [10]: 2580 pg/mL
TARC (pg/mL), A549 cells + IL-13 + TNFα; control antibody at 0.11 nM [10]: 2780 pg/mL
TARC (pg/mL), A549 cells + IL-13 + TNFα; control antibody at 0.11 nM (part 2, with hP4 4H12) [10]: 2570 pg/mL
TARC (pg/mL), A549 cells + IL-13 + TNFα; control antibody at 0.5 nM (part 2, with hP4 4H12) [10]: 2580 pg/mL
TARC (pg/mL), A549 cells + IL-13 + TNFα; control antibody at 0.53 nM [10]: 2840 pg/mL
TARC (pg/mL), A549 cells + IL-13 + TNFα; control antibody at 2.67 nM [10]: 2720 pg/mL
TARC (pg/mL), A549 cells + IL-13 + TNFα; control antibody at 2.7 nM (part 2, with hP4 4H12) [10]: 2790 pg/mL
TARC (pg/mL), A549 cells + IL-13 + TNFα; control antibody at 13.3 nM [10]: 2820 pg/mL
TARC (pg/mL), A549 cells + IL-13 + TNFα; control antibody at 13.3 nM (part 2, with hP4 4H12) [10]: 2870 pg/mL
TARC (pg/mL), A549 cells + IL-13 + TNFα; control antibody at 66.7 nM [10]: 2700 pg/mL
TARC (pg/mL), A549 cells + IL-13 + TNFα; control antibody at 66.7 nM (part 2, with hP4 4H12) [10]: 2920 pg/mL
VCAM-1 fluorescence intensity, HUVEC + IL-13 0.5 ng/mL + TNFα; control antibody at 0.0002 nM [10]: 347
VCAM-1 fluorescence intensity, HUVEC + IL-13 0.5 ng/mL + TNFα; control antibody at 0.001 nM [10]: 369
VCAM-1 fluorescence intensity, HUVEC + IL-13 0.5 ng/mL + TNFα; control antibody at 0.004 nM [10]: 373
VCAM-1 fluorescence intensity, HUVEC + IL-13 0.5 ng/mL + TNFα; control antibody at 0.021 nM [10]: 369
VCAM-1 fluorescence intensity, HUVEC + IL-13 0.5 ng/mL + TNFα; control antibody at 0.11 nM [10]: 340
VCAM-1 fluorescence intensity, HUVEC + IL-13 0.5 ng/mL + TNFα; control antibody at 0.53 nM [10]: 302
VCAM-1 fluorescence intensity, HUVEC + IL-13 0.5 ng/mL + TNFα; control antibody at 2.67 nM [10]: 354
VCAM-1 fluorescence intensity, HUVEC + IL-13 0.5 ng/mL + TNFα; control antibody at 13.3 nM [10]: 341
OD450 nm [11]: 0.07 and 0.06
OD450 nm [12]: 0.06
mean fluorescence intensity [13]: 80.7
mean fluorescence intensity [14]: 22.1
mean fluorescence intensity [15]: 72.4
OD450 nm [16]: 0.07 and 0.05
OD450 nm [17]: 0.06
OD450 nm [18]: 0.07
mean fluorescence intensity [19]: 17.1
mean fluorescence intensity [20]: 77.2
mean fluorescence intensity [21]: 67.9
OD450 nm [22]: 0.07
mean fluorescence intensity [23]: 81.3
mean fluorescence intensity [24]: 37.5
mean fluorescence intensity [25]: 72
OD450 nm [26]: 0.06
mean fluorescence intensity [27]: 78.9
Substance: IgG control (mouse IgG) (antibody)
